# Test results taken from IntAct's records for PubMed 25938661.
# B1: Repulsive guidance molecule B (Homo sapiens), Q6NW40 (parent)
# chain: MGLRAAPSSAAAAAAEVEQRRSPGLCPPPLELLLLLLFSLGLLHAGDCQQPAQCRIQKCTTDFVSLTSHLNSAVDGFDSEFCKALRAYAGCTQRTSKACRGNLVYHSAVLGISDLMSQRNCSKDGPTSSTNPEVTHDPCNYHSHAGAREHRRGDQNPPSYLFCGLFGDPHLRTFKDNFQTCKVEGAWPLIDNNYLSVQVTNVPVVPGSSATATNKITIIFKAHHECTDQKVYQAVTDDLPAAFVDGTTSGGDSDAKSLRIVERESGHYVEMHARYIGTTVFVRQVGRYLTLAIRMPEDLAMSYEESQDLQLCVNGCPLSERIDDGQGQVSAILGHSLPRTSLVQAWPGYTLETANTQCHEKMPVKDIYFQSCVFDLLTTGDANFTAAAHSALEDVEALHPRKERWHIFPSSGNGTPRGGSDLSVSLGLTCLILIVFL
# partner: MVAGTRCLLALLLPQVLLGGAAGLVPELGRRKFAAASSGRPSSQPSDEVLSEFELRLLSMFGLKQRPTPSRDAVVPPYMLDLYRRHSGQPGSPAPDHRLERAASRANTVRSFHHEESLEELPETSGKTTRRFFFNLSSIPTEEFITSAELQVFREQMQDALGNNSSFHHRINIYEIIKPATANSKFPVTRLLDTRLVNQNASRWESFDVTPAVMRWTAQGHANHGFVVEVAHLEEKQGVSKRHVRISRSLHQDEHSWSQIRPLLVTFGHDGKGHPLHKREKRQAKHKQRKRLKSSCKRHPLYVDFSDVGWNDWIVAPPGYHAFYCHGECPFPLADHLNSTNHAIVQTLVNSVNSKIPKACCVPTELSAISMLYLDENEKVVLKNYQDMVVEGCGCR
# B2: Hemojuvelin (Homo sapiens), Q6ZVN8-1 (parent)
# chain: MGEPGQSPSPRSSHGSPPTLSTLTLLLLLCGHAHSQCKILRCNAEYVSSTLSLRGGGSSGALRGGGGGGRGGGVGSGGLCRALRSYALCTRRTARTCRGDLAFHSAVHGIEDLMIQHNCSRQGPTAPPPPRGPALPGAGSGLPAPDPCDYEGRFSRLHGRPPGFLHCASFGDPHVRSFHHHFHTCRVQGAWPLLDNDFLFVQATSSPMALGANATATRKLTIIFKNMQECIDQKVYQAEVDNLPVAFEDGSINGGDRPGGSSLSIQTANPGNHVEIQAAYIGTTIIIRQTAGQLSFSIKVAEDVAMAFSAEQDLQLCVGGCPPSQRLSRSERNRRGAITIDTARRLCKEGLPVEDAYFHSCVFDVLISGDPNFTVAAQAALEDARAFLPDLEKLHLFPSDAGVPLSSATLLAPLLSGLFVLWLCIQ
# partner: B1 partner
# Variants of: B1
# Conditions: with bmp2_human BMP2, P12643
row,Variant,effect of a mutation on the interaction
1,MGLRAAPSSAAAAAAEVEQRRSPGLCPPPLELLLLLLFSLGLLHAGDCQQPAQCRIQKCTTDFVSLTSHLNSAVDGFDSEFCKALRAYAGCTQRTSKACRGNLVYRSAVLGISDLMSQRNCSKDGPTSSTNPEVTHDPCNYHSHAGAREHRRGDQNPPSYLFCGLFGDPHLRTFKDNFQTCKVEGAWPLIDNNYLSVQVTNVPVVPGSSATATNKITIIFKAHHECTDQKVYQAVTDDLPAAFVDGTTSGGDSDAKSLRIVERESGHYVEMHARYIGTTVFVRQVGRYLTLAIRMPEDLAMSYEESQDLQLCVNGCPLSERIDDGQGQVSAILGHSLPRTSLVQAWPGYTLETANTQCHEKMPVKDIYFQSCVFDLLTTGDANFTAAAHSALEDVEALHPRKERWHIFPSSGNGTPRGGSDLSVSLGLTCLILIVFL [H106R],decreasing interaction strength

# Variants of: B2
# Conditions: with bmp2_human BMP2, P12643
row,Variant,effect of a mutation on the interaction
1,MGEPGQSPSPRSSHGSPPTLSTLTLLLLLCGHAHSQCKILRCNAEYVSSTLSLRGGGSSGALRGGGGGGRGGGVGSGGLCRALRSYALCTRRTARTCRRDLAFHSAVHGIEDLMIQHNCSRQGPTAPPPPRGPALPGAGSGLPAPDPCDYEGRFSRLHGRPPGFLHCASFGDPHVRSFHHHFHTCRVQGAWPLLDNDFLFVQATSSPMALGANATATRKLTIIFKNMQECIDQKVYQAEVDNLPVAFEDGSINGGDRPGGSSLSIQTANPGNHVEIQAAYIGTTIIIRQTAGQLSFSIKVAEDVAMAFSAEQDLQLCVGGCPPSQRLSRSERNRRGAITIDTARRLCKEGLPVEDAYFHSCVFDVLISGDPNFTVAAQAALEDARAFLPDLEKLHLFPSDAGVPLSSATLLAPLLSGLFVLWLCIQ [G99R],decreasing interaction strength
2,MGEPGQSPSPRSSHGSPPTLSTLTLLLLLCGHAHSQCKILRCNAEYVSSTLSLRGGGSSGALRGGGGGGRGGGVGSGGLCRALRSYALCTRRTARTCRGDPAFHSAVHGIEDLMIQHNCSRQGPTAPPPPRGPALPGAGSGLPAPDPCDYEGRFSRLHGRPPGFLHCASFGDPHVRSFHHHFHTCRVQGAWPLLDNDFLFVQATSSPMALGANATATRKLTIIFKNMQECIDQKVYQAEVDNLPVAFEDGSINGGDRPGGSSLSIQTANPGNHVEIQAAYIGTTIIIRQTAGQLSFSIKVAEDVAMAFSAEQDLQLCVGGCPPSQRLSRSERNRRGAITIDTARRLCKEGLPVEDAYFHSCVFDVLISGDPNFTVAAQAALEDARAFLPDLEKLHLFPSDAGVPLSSATLLAPLLSGLFVLWLCIQ [L101P],decreasing interaction strength
